For the assay, the target named is T1, Myc-tagged XDpr1a phosphorylated by CKIδ (Xenopus, UniProt Q8QG92 1-824, phosphorylated by CKIδ; sites not told).
T1 construct: Xenopus Dapper1a (XDpr1a), as m1; also called phosphorylated XDpr1a; XDpr1a in the presence of CKIδ
T1 sequence (looked up): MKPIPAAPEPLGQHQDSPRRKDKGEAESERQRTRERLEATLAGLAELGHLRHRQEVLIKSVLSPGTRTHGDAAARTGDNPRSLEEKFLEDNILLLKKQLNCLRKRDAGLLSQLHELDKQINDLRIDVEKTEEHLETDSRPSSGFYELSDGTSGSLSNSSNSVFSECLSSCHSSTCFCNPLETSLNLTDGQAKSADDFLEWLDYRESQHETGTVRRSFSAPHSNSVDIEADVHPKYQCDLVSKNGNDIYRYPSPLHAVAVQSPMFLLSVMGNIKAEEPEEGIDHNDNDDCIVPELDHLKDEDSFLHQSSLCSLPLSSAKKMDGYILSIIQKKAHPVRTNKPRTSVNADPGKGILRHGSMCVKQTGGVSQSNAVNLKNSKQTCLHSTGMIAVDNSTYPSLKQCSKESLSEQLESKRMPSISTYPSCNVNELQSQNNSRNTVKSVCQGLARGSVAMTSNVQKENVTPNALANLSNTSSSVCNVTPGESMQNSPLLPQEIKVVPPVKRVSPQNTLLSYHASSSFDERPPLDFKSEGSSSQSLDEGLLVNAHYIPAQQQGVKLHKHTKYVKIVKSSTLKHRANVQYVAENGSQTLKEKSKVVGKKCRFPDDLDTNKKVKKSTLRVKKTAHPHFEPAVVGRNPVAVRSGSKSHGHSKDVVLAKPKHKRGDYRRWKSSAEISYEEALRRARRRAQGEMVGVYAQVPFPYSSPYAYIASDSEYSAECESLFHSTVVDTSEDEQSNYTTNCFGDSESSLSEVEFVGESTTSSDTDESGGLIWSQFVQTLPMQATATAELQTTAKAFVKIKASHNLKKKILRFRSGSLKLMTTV
As to the kind of experiment: co-IP; in vitro coimmunoprecipitation: [35S]methionine-labeled Myc:XDpr1a immunoprecipitated with anti-Myc antibodies and protein A agarose, 2 hours at room temperature, from a reaction containing HA-tagged XDsh in the absence or presence of CKIδ; washed three times with 50 mM Tris-HCl pH 7.4, 137 mM NaCl; SDS-PAGE, autoradiography, PhosphorImager quantitation (n = 4 trials). The settings on record: partners not purified.

B1: HA-tagged XDsh phosphorylated by CKIδ (natural protein, Xenopus, UniProt P51142 1-736, looked up)
chain: MAETKVIYHLDEEETPYLVKVPVPATDIRLRDFKAALGRGHAKYFFKAMDQDFGVVKEEISDDNAKLPCFNDRVVSWLASSEGSQPDSAPPAPATEVRPEPPPPVPPPIPPPPAERTSGIGDSRPPSFHPNVSGSTEQLDQDNESVISMRRDRVRRRESSEQAGVGRGVNGRTERHLSGYESSSTLLTSEIETSICDSEEDDTMSRFSSSTEQSSASRLLKRHRRRRKQRPPRLERTSSFSSVTDSTMSLNIITVTLNMEKYNFLGISIVGQSNERGDGGIYIGSIMKGGAVAADGRIEPGDMLLQVNDINFENMSNDDAVRVLRDIVHKPGPIVLTVAKCWDPSPQGYFTLPRNEPIHPIDPAAWVSHSAALSGSFPVYPGSASMSSMTSSTSVTETELSHALPPVSLFSLSVHTDLASVVKVMASPESGLEVRDRMWLKITIPNAFLGSDVVDWLYHHVEGFQDRREARKFASNLLKAGFIRHTVNKITFSEQCYYIFGDLTGCENYMTNLSLNDNDGSSGASDQDTLAPLPLPGASPWPLLPTFSYQYQAPHPYSTQPPAYHELSSYSYGMGSAGSQHSEGSRSSGSNRSDGGRGMQKDDRSGVAGVGGGDSKSGSGSESEYSTRSSIRRVGGGEAGPPSERSTSSRLPPHHPPSVHSYAAPGVPLSYNPMMLMMMPPPPLPPPGVCPPNSSVPPGAPPLVRDLASVPPELTATRQSFHMAMGNPSEFFVDVM
modifications: phosphorylated by CKIδ; sites not told
notes: Xenopus disheveled (XDsh), as m2; also called phosphorylated XDsh; XDsh in the presence of CKIδ
As to B1, the “coimmunoprecipitation relative to the control without CKIδ” value was ~0.5 relative to no CKIδ (1.0).

The values are drawn from publication PMC2679210, “Dpr Acts as a Molecular Switch, Inhibiting Wnt Signaling when Unphosphorylated, but Promoting Wnt Signaling when Phosphorylated by Casein Kinase Iδ/ε” (PLoS ONE, 2009).
